Data from article PMC7729955 (2020).

T1: biotinylated TGPAvi (Galaxea fascicularis (coral), biotin on the Avi-tag (BirA))
T1 chain 1: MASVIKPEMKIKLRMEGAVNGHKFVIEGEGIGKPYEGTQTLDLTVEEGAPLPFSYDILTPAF
T1 chain 2: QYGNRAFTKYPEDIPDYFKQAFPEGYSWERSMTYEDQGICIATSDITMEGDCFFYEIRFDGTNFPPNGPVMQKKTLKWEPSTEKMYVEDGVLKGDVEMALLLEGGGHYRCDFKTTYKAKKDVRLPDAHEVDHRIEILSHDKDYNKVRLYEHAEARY

B1: sybody 66 (VHH)
VHH: QVQLVESGGGLVQAGGSLRLSCAASGFPVMENSMYWYRQAPGKEREWVAAITSQGSWTWYADSVKGRFTISRDNAKNTVYLQMNSLKPEDTAVYYCHVSVGTNYTGQGTQVTVS
B2: sybody 68 (VHH)
VHH: QVQLVESGGGLVQAGGSLRLSCAASGFPVNAVTMWWYRQAPGKEREWVAAIKSQGAGTWYADSVKGRFTISRDNAKNTVYLQMNSLKPEDTAVYYCHVYVGAYRYEGRGTQVTVS
B3: sybody 92 (VHH)
VHH: QVQLVESGGGLVQAGGSLRLSCAASGFPVDTQWMHWYRQAPGKEREWVAAISSTGRSTFYADSVKGRFTISRDNAKNTVYLQMNSLKPEDTAVYYCTVYVGNRYRGQGTQVTVS
B4: sybody 44 (VHH)
VHH: QVQLVESGGGLVQAGGSLRLSCAASGFPVGRASMWWYRQAPGKEREWVAAISSYGWVTAYADSVKGRFTISRDNAKNTVYLQMNSLKPEDTAVYYCEVSVGTGYRGQGTQVTVS

Target: T1, biotinylated TGPAvi
Assay: BLI

Row | Binder | Kd [nM]
1 | B1 | 7.8
2 | B2 | 10.4
3 | B3 | 3.3
4 | B4 | 4.4

Target: T1, biotinylated TGPAvi
Assay: BLI
Remark: another data set of the same source

Row | Binder | koff [s⁻¹]
5 | B1 | 0.0013
6 | B2 | 0.0012
7 | B3 | 0.00066
8 | B4 | 0.00085
